# Results from the supplement of paper PMC12042874.
# ± gives the uncertainty stated by the source.
# Assay: amyloid nucleation score (Sup35N fusion, yeast selection) (log enrichment); library NNK1; higher = more nucleation; inactive = no reads after selection
# Method in brief: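 DiMSum was used to calculate nucleation scores as log enrichment of output over input reads, centred on the mode score of non-aggregating sequences. Sequences with fewer than 100 input reads were not scored. Input and output came from Illumina sequencing of plasmid inserts in psi-negative yeast expressing peptides of 20 random codons fused to Sup35N, induced 24 hours with 100 μM copper sulfate and then grown 7 days at 30°C on medium lacking adenine and uracil.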
row,Substance,amyloid nucleation score
1,SRLWSSCHCHLAAYSVIHDD,inactive
2,SRLWVFD,0.314 ± 0.79
3,SRMLPVMFSGP,-1.06 ± 0.89
4,SRVLSCEGWLK,-0.051 ± 0.9
5,SRYKTPSVDGVFCSALRGSG,0.301 ± 0.61
6,SSCVRN,-0.153 ± 0.57
7,SSEDYALVLRSSGALVCSCL,0.418 ± 1
8,SSETCTK,-0.024 ± 0.55
9,SSFDMRDILYLSSNILRSRM,-0.505 ± 0.35
10,SSFIAYASSDTWFTVKA,1.09 ± 0.36
11,SSFRKTLLMVIYARNEGCMS,0.471 ± 0.97
12,SSINMVVSPK,1.09 ± 0.3
13,SSIVKYSCLVVFFQRNHVIP,inactive
14,SSKEWLNADAVPGNGVEAIV,-0.338 ± 0.53
15,SSLPDAWVYLGSSWLEDHGR,0.461 ± 0.7
16,SSLWTFTHRSKVGRYDFMAV,-1.51 ± 1.1
17,SSMGPFLSV,0.014 ± 0.48
18,SSMSPTVYVVRR,0.163 ± 0.9
19,SSMVVVGRRNLSDWKEYYPM,-0.283 ± 0.45
20,SSPKTRMVEGVCCYFVGSIY,0.704 ± 1.2
21,SSRLLCYRSVGAFISVGNEV,0.675 ± 0.19
22,SSRNDLDVQYLTVDQRPSMP,1.66 ± 0.56

row,Substance,amyloid nucleation score
1,SSRYLSDSIKLAGWSIT,-1.39 ± 2.4
2,SSSFRCAFSSVA,0.994 ± 0.69
3,SSSLSKLVFWKYFCIDEGLS,0.491 ± 0.53
4,SSTRT,0.667 ± 0.97
5,SSTSSRCHTSANLVRLVNGR,0.714 ± 0.33
6,SSVFKRMWPLLFVIPRQMH,0.02 ± 0.43
7,SSVGKLGDPWL,-1.15 ± 0.53
8,SSVKTVDLNCI,-0.125 ± 0.37
9,SSYGKFDGKCLQHM,-0.157 ± 0.76
10,STFAPNTSFGTIEIRFWICV,-0.702 ± 1.1
11,STFCTSAISMSIGSIIVGLS,0.043 ± 0.62
12,STIGNVY,-0.586 ± 0.51
13,STLSMTHVASAAVWRLVMPR,1.41 ± 0.48
14,STLWKASVFKFCYICLYQQW,0.35 ± 0.95
15,STMVCHDFLAMMGSCMGLCL,-0.406 ± 0.96
16,STNLLDFVGKSYVNWKKFRT,0.104 ± 0.42
17,STSIDVWRSALLRVFGFTIY,0.171 ± 0.37
18,STTSMPDWLNVWVSRSSSVV,1.06 ± 0.28
19,STTVSIYWCRWGGSSLHDV,0.141 ± 1.4
20,STWIHQMRSMASAENFSCYS,-1.27 ± 0.63
21,SVENNTAPICNTKSSVSDSL,0.852 ± 0.93
22,SVFNGYQSLVICFLRVSACC,0.154 ± 1

row,Substance,amyloid nucleation score
1,SVFRSSVCLLANDGVFSMNV,0.355 ± 0.39
2,SVFSTEVCSTHAMILWKY,0.117 ± 1.4
3,SVFWAWCVADHTIIDQKSSL,0.391 ± 0.48
4,SVFYYILNPSEAVHEVSVTS,-0.564 ± 0.48
5,SVGDIFSMWSVCSSVNDRCK,0.415 ± 0.21
6,SVGQRSRAEPDVKLCSGNLG,inactive
7,SVHKSMKSDINMACHAKR,1.04 ± 0.6
8,SVIFWMGRRMLLLACVPESA,-0.128 ± 0.81
9,SVKGLYLIDVLLSYGLTFGM,-0.608 ± 0.53
10,SVKTLLVRGILSLSIGFYMS,0.294 ± 0.52
11,SVLSMLIWYKPHREGSLN,0.812 ± 1.1
12,SVLWCPRCRYCKFAGVRTWK,-0.398 ± 0.97
13,SVMLLQLYMCLINFPNIPRT,1.6 ± 0.44
14,SVRVI,0.105 ± 0.73
15,SVRVMVLFWIKHCRLLWGRH,-0.405 ± 1.7
16,SVSLTNGVAEADKRYASAWL,-0.093 ± 0.31
17,SVTEVFYGKSVFLTFVFGIF,0.292 ± 0.31
18,SVTRHALSNRSNGKIADCC,-0.306 ± 0.56
19,SVVRTMSLLATFLRV,-0.795 ± 1.6
20,SVWIKSST,-0.285 ± 1.4
